Measured values: patent US20050064539A1

Target: mannose-6-phosphate receptor (human (cultured skin fibroblasts from a Fabry disease patient)) (UniProt O00264)
Test: cell-based or functional assay

Sequence of UniProt O00264 (O00264 whole entry): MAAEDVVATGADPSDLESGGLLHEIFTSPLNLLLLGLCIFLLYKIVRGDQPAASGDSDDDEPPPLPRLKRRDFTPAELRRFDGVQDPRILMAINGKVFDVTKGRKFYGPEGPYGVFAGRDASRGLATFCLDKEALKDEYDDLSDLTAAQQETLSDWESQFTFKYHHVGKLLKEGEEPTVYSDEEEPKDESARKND

α-galactosidase activity in the cell extract of Fabry patient-derived fibroblasts 18 hours after adding enzyme at 1 µg/ml (uptake experiment): 3 fold
Substance: mannosidase-treated α-galactosidase (human α-galactosidase produced by S. cerevisiae strain HPY21G, treated with Cellulomonas SO-5-derived α-mannosidase) (from UniProt P06280 32-429) (enzyme)
